Laboratory results: the RNAGym collection of RNA variant scans (doi:10.1073/pnas.2313332121)

B1: TPR t1 (parent)
chain: GACCAAUCUGCCCUCAGAGCUCGAGAACAUCUUCGGAUGCAGAGGAGGCAGGCUUCGGUGGCGCGAUAGCGCCAACGUCCUCAACCUCCAAUGCAUCCCACCACAUGAUGAUGCCUGAAGAGCCUUGGUUUUUUG

Variants of: B1
Experiment: polymerase ribozyme fitness, log enrichment relative to wild type (log ratio); higher = more active; in vitro selection for triplet polymerase activity
How it was run: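 After PCR construction and transcription, each subunit's mutant library from a heterodimeric triplet polymerase ribozyme was annealed with a biotinylated primer, the partner subunit and triplets. Incubation was frozen, at −7 °C, and extended constructs were gel-excised, bound to streptavidin beads and amplified by RT-PCR, in one selection round done in triplicate. Fitness is the logarithm of a genotype's enrichment divided by that of the wild type, from inverse-variance-weighted replicate averages of Illumina-sequenced inputs and outputs. The base of the logarithm is 2, and genotypes needed ≥10 input reads and ≥1 read per output.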

| Variant | polymerase ribozyme fitness (log ratio) |
| --- | --- |
| A2G C28U | -2.27 |
| A2C C86U A90C | -4.21 |
| A2G A91U U96G G120U | -2.53 |
| A2U C4U G39C G44U G61A A83G C89U A121U | -2.89 |
| A2U C4U G61U C101A G127C | -3.03 |
| A2G C85U A95G | -2.08 |
| A2C C4G G51C C101A | -6.08 |
| A2G C102A C114U | -4.44 |
| A2C C64U | -1.07 |
| A2U C70U C88A | -3.44 |
| A2C G52A | -2.22 |
| A2G C12A C85A G113C | -5.2 |
| A2U C12G G63A | -3.14 |
| A2U G10U G45A G48A C102U C114U G120C C123U | -4.53 |
| A2U C72U C101G C124A | -2.06 |
| A2G A41C G42A C82G C89A U92G G120U | -5.77 |
| A2U C4G C22G U32C C70A A111U G128C | -4.89 |
| A2U A27G G39C G61C C62U A84U | -7.51 |
| A2C U14G A37C C49G G60C U96A A111U | -6.59 |
| A2C U7C G113U G120C | -4.07 |
| A2G C62U G110A C114G C124A | -7.09 |

| Variant | polymerase ribozyme fitness (log ratio) |
| --- | --- |
| A2C U21A | -2.19 |
| A2U G110A | -3.63 |
| A2U G110C | -6.03 |
| A2C C56A G63A | -4.79 |
| A2C U33A G60A G71U C115U | -6.78 |
| A2U G61U G113C C114U | -3.06 |
| A2C A37C C94U U96A U112C C114U | -4.55 |
| A2U U7G C22A U33G C72U G120C | -7 |
| A2U C8G G39C G61C C79U C101A | -4.35 |
| A2G C53A G60A A105C | -4.11 |
| A2U G127C | -2.05 |
| A2G G120A U129C G135U | -1.81 |
| A2U G10U G42A C88U C89G U92G C115G | -6.18 |
| A2U C56A G63U U106A C115G | -6.59 |
| A2C C40U G60U C62G | -3.56 |
| A2C C12A G110A U133A | -2.17 |
| A2U A18U A29U A41U G60A | -5.23 |
| A2U G77A | -2.8 |
| A2G C13U G69C | -0.807 |
| A2U G47U G61U | -4.48 |
| A2C A18U C124A | -3.22 |

| Variant | polymerase ribozyme fitness (log ratio) |
| --- | --- |
| A2C U7G A43C G63C C115U | -4.87 |
| A2G C114U G120U | -3.07 |
| A2C C123U G128C | -0.305 |
| A2U G135U | -1.94 |
| A2U C8G C15U C64U | -2.18 |
| A2G C13G | 0.491 |
| A2G A27G G52U G63C U87C | -2.6 |
| A2U G60U | -1.99 |
| A2C C13U C86U G110U G120C | -4.02 |
| A2G C11U C22G C62U U130A | -4.9 |
| A2C G61C A121C | -1.16 |
| A2C G60A C82U | -2.16 |
| A2U U9G A50G C62U C98A G120C | -5.94 |
| A2C G71U G93A U112A G113C | -4.56 |
| A2C C114U | -3.24 |
| A2C C114A | -3.32 |
| A2G C101G | -1.53 |
| A2U C11U G69A | -4.07 |
| A2G C62A | -0.128 |
| A2C G69A | -3.57 |
| A2C G120A C123A | -0.977 |

| Variant | polymerase ribozyme fitness (log ratio) |
| --- | --- |
| A2G G36A C49G G69U A90G C97U G120C | 0.751 |
| A2C C13A | -2.71 |
| A2G C89A | -2.01 |
| A2C C28U U87C | -3.82 |
| A2U A27G U54G C123U | -3.79 |
| A2U G10U C15G U106A | -2.38 |
| A2U C53G C76U U125G | -4.01 |
| A2C C4A U9G C12G C104U U116C U133A | 0.375 |
| A2C C8A C72U C123U | -0.16 |
| A2G C11U G48C U92A | -4.56 |
| A2U C49A G71A C82A G120U | -3.9 |
| A2U G69U C102U G113A U129A | -0.898 |
| A2U G36C A74C | -3.04 |
| A2G C123U | 1.06 |
| A2G C12A | -0.474 |
| A2G U78A C79U | 0.0458 |
| A2G C13A A43U G51U C64U A83U A84G | -6.26 |
| A2C C3G C28G C82G A121C G128C | -4.07 |
| A2G G45U | -1.83 |
| A2U C20A G69U C70G | -5.15 |
